Assay results published in the supplement of paper PMC9112550, “Optimization of the antimicrobial peptide Bac7 by deep mutational scanning” (BMC Biology, 2022).

Tested on: Escherichia coli TOP10
Assay: shrunken log2 fold change of peptide-encoding DNA abundance (4.5 h post-induction vs induction); higher = less antimicrobial activity (less host growth inhibition)
Conditions: time post-induction: 4.5 h; library: site-saturation at positions 5, 18, 19, 20
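Also: peptides expressed intracellularly from a pBAD plasmid library in pooled LB shake-flask culture, induced with 0.3% L-arabinose, DNA abundance read by NGS, three biological replicates, DESeq2 with apeglm shrinkage.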

Row | Sequence | shrunken log2 fold change
1 | RRIRRRPPRLPRPRPRPTTFPRP | 3.05
2 | RRIRSRPPRLPRPRPRPQHFPRP | -0.00646
3 | RRIRHRPPRLPRPRPRPEQRPRP | 0.229
4 | RRIRRRPPRLPRPRPRPQFGPRP | -0.00169
5 | RRIRPRPPRLPRPRPRPNGYPRP | -0.224
6 | RRIRWRPPRLPRPRPRPEGWPRP | 1.39
7 | RRIRIRPPRLPRPRPRPYGDPRP | 0.0112
8 | RRIRFRPPRLPRPRPRPLAVPRP | 0.249
9 | RRIRNRPPRLPRPRPRPILMPRP | -0.0495
10 | RRIRARPPRLPRPRPRPRMGPRP | 0.692
11 | RRIRNRPPRLPRPRPRPWRDPRP | -0.342
12 | RRIRGRPPRLPRPRPRPMCCPRP | 0.164
13 | RRIRQRPPRLPRPRPRPNNAPRP | -0.216
14 | RRIRCRPPRLPRPRPRPAPRPRP | 0.915
15 | RRIRERPPRLPRPRPRPHHRPRP | -0.145
16 | RRIRNRPPRLPRPRPRPHTVPRP | -0.118
17 | RRIRDRPPRLPRPRPRPQEDPRP | 0.399
18 | RRIRDRPPRLPRPRPRPSFDPRP | -0.0842
19 | RRIRWRPPRLPRPRPRPRSEPRP | 0.0877
20 | RRIRIRPPRLPRPRPRPDQIPRP | -0.0795
21 | RRIRSRPPRLPRPRPRPDWWPRP | -0.0873
22 | RRIRRRPPRLPRPRPRPGTRPRP | 0.117
23 | RRIRGRPPRLPRPRPRPDQDPRP | 1.06
24 | RRIRWRPPRLPRPRPRPNHGPRP | -0.16
25 | RRIRWRPPRLPRPRPRPFGPPRP | 0.0591

Row | Sequence | shrunken log2 fold change
26 | RRIRNRPPRLPRPRPRPELFPRP | -0.0281
27 | RRIRIRPPRLPRPRPRPARQPRP | -0.0037
28 | RRIRHRPPRLPRPRPRPFCRPRP | -0.108
29 | RRIRWRPPRLPRPRPRPIHFPRP | -0.357
30 | RRIRLRPPRLPRPRPRPIFAPRP | 0.331
31 | RRIRRRPPRLPRPRPRPKTTPRP | 0.0923
32 | RRIRLRPPRLPRPRPRPGVTPRP | 0.0426
33 | RRIRPRPPRLPRPRPRPTEIPRP | 0.000528
34 | RRIRYRPPRLPRPRPRPQGPPRP | -0.0382
35 | RRIRMRPPRLPRPRPRPMFGPRP | 0.0113
36 | RRIRFRPPRLPRPRPRPECHPRP | 0.0585
37 | RRIRKRPPRLPRPRPRPKRMPRP | 0.296
38 | RRIRFRPPRLPRPRPRPMSCPRP | 0.0282
39 | RRIRLRPPRLPRPRPRPFPSPRP | -0.173
40 | RRIRKRPPRLPRPRPRPRLDPRP | 0.624
41 | RRIRERPPRLPRPRPRPMRQPRP | 0.575
42 | RRIRGRPPRLPRPRPRPMCMPRP | 0.509
43 | RRIRCRPPRLPRPRPRPMCHPRP | -0.662
44 | RRIRWRPPRLPRPRPRPAPVPRP | 0.433
45 | RRIRWRPPRLPRPRPRPYGFPRP | -0.00325
46 | RRIRPRPPRLPRPRPRPYHQPRP | 0.0122
47 | RRIRHRPPRLPRPRPRPAHGPRP | 0.0855
48 | RRIRLRPPRLPRPRPRPLVYPRP | -0.335
49 | RRIRVRPPRLPRPRPRPFFTPRP | 0.00087
50 | RRIRLRPPRLPRPRPRPEHFPRP | 0.0339

Row | Sequence | shrunken log2 fold change
51 | RRIRGRPPRLPRPRPRPSVFPRP | 0.465
52 | RRIRARPPRLPRPRPRPGVAPRP | 1.05
53 | RRIRLRPPRLPRPRPRPEMPPRP | 0.365
54 | RRIRPRPPRLPRPRPRPTWAPRP | 0.381
55 | RRIRVRPPRLPRPRPRPFGKPRP | -0.151
56 | RRIRHRPPRLPRPRPRPQMNPRP | -0.312
57 | RRIRFRPPRLPRPRPRPFRAPRP | 0.0466
58 | RRIRCRPPRLPRPRPRPISIPRP | -0.443
59 | RRIRPRPPRLPRPRPRPMCCPRP | -0.0731
60 | RRIRGRPPRLPRPRPRPINKPRP | 0.287
61 | RRIRQRPPRLPRPRPRPAPEPRP | 0.228
62 | RRIRTRPPRLPRPRPRPTDVPRP | 0.284
63 | RRIRYRPPRLPRPRPRPDAGPRP | -0.492
64 | RRIRRRPPRLPRPRPRPPHYPRP | 1.15
65 | RRIRFRPPRLPRPRPRPNECPRP | -0.00063
66 | RRIRVRPPRLPRPRPRPWAKPRP | -0.00459
67 | RRIRCRPPRLPRPRPRPPATPRP | 0.887
68 | RRIRVRPPRLPRPRPRPYARPRP | -0.243
69 | RRIRSRPPRLPRPRPRPHEDPRP | 0.132
70 | RRIRCRPPRLPRPRPRPMVQPRP | -0.292
71 | RRIRPRPPRLPRPRPRPHVWPRP | 0.51
72 | RRIRERPPRLPRPRPRPFHNPRP | -0.413
73 | RRIRARPPRLPRPRPRPVWPPRP | 0.623
74 | RRIRRRPPRLPRPRPRPLHPPRP | 0.437
75 | RRIRHRPPRLPRPRPRPARLPRP | 0.568

Row | Sequence | shrunken log2 fold change
76 | RRIRARPPRLPRPRPRPWSLPRP | -0.181
77 | RRIRMRPPRLPRPRPRPGCRPRP | 1.22
78 | RRIRQRPPRLPRPRPRPNKWPRP | -0.0433
79 | RRIRNRPPRLPRPRPRPWSTPRP | -0.0852
80 | RRIRLRPPRLPRPRPRPCCTPRP | -0.0665
81 | RRIRDRPPRLPRPRPRPIVIPRP | -0.259
82 | RRIRHRPPRLPRPRPRPYHDPRP | -0.135
83 | RRIRLRPPRLPRPRPRPFYYPRP | -0.666
84 | RRIRMRPPRLPRPRPRPERKPRP | 2.06
85 | RRIRTRPPRLPRPRPRPESRPRP | -0.0705
86 | RRIRYRPPRLPRPRPRPWLAPRP | 0.00503
87 | RRIRERPPRLPRPRPRPWVEPRP | 0.0665
88 | RRIRLRPPRLPRPRPRPTSPPRP | -0.0576
89 | RRIRHRPPRLPRPRPRPDPDPRP | -0.0982
90 | RRIRCRPPRLPRPRPRPHHTPRP | -1.04
91 | RRIRSRPPRLPRPRPRPSYHPRP | -0.836
92 | RRIRHRPPRLPRPRPRPFVFPRP | -0.0736
93 | RRIRLRPPRLPRPRPRPAGPPRP | 0.338
94 | RRIRERPPRLPRPRPRPGISPRP | -0.017
95 | RRIRTRPPRLPRPRPRPKGNPRP | -0.403
96 | RRIRQRPPRLPRPRPRPGSKPRP | -0.00453
97 | RRIRFRPPRLPRPRPRPAKAPRP | 0.26
98 | RRIRERPPRLPRPRPRPYVQPRP | -0.0184
99 | RRIRCRPPRLPRPRPRPFRKPRP | -0.0377
100 | RRIRLRPPRLPRPRPRPSNYPRP | -0.53

Row | Sequence | shrunken log2 fold change
101 | RRIRPRPPRLPRPRPRPCVSPRP | -0.0858
102 | RRIRARPPRLPRPRPRPQKMPRP | -0.000461
103 | RRIRIRPPRLPRPRPRPALGPRP | 0.0956
104 | RRIRRRPPRLPRPRPRPWDRPRP | 0.26
105 | RRIRRRPPRLPRPRPRPWYNPRP | -0.468
106 | RRIRIRPPRLPRPRPRPVVCPRP | -0.000979
107 | RRIRMRPPRLPRPRPRPMVWPRP | 1.09
108 | RRIRLRPPRLPRPRPRPNVCPRP | -0.0138
109 | RRIRCRPPRLPRPRPRPKDVPRP | 0.015
110 | RRIRHRPPRLPRPRPRPGMRPRP | 0.163
111 | RRIRKRPPRLPRPRPRPWQAPRP | 0.000778
112 | RRIRFRPPRLPRPRPRPFVQPRP | -0.694
113 | RRIRPRPPRLPRPRPRPGVVPRP | 0.215
114 | RRIRPRPPRLPRPRPRPLREPRP | 0.783
115 | RRIRCRPPRLPRPRPRPTKYPRP | -0.192
116 | RRIRKRPPRLPRPRPRPENSPRP | -0.131
117 | RRIRTRPPRLPRPRPRPHDGPRP | -0.0845
118 | RRIRYRPPRLPRPRPRPAYGPRP | 3.33
119 | RRIRQRPPRLPRPRPRPEIYPRP | -0.145
120 | RRIRMRPPRLPRPRPRPHPFPRP | 0.169
121 | RRIRIRPPRLPRPRPRPPVFPRP | 0.0815
122 | RRIRGRPPRLPRPRPRPNMAPRP | 0.875
123 | RRIRFRPPRLPRPRPRPIDFPRP | -0.0919
124 | RRIRFRPPRLPRPRPRPDTPPRP | 1.5
125 | RRIRLRPPRLPRPRPRPIGCPRP | -0.0407

Row | Sequence | shrunken log2 fold change
126 | RRIRWRPPRLPRPRPRPNIKPRP | -0.384
127 | RRIRNRPPRLPRPRPRPWVHPRP | -0.288
128 | RRIRYRPPRLPRPRPRPSYIPRP | -1.4
129 | RRIRERPPRLPRPRPRPCHHPRP | -0.209
130 | RRIRERPPRLPRPRPRPSPSPRP | -0.269
131 | RRIRLRPPRLPRPRPRPSEGPRP | -0.501
132 | RRIRARPPRLPRPRPRPEFTPRP | 0.475
133 | RRIRIRPPRLPRPRPRPDFGPRP | -0.196
134 | RRIRYRPPRLPRPRPRPADHPRP | -0.0872
135 | RRIRCRPPRLPRPRPRPYNPPRP | -1.15
136 | RRIRHRPPRLPRPRPRPLQKPRP | 0.104
137 | RRIRYRPPRLPRPRPRPEATPRP | 0.28
138 | RRIRWRPPRLPRPRPRPWYDPRP | -0.31
139 | RRIRMRPPRLPRPRPRPEDVPRP | -0.0102
140 | RRIRVRPPRLPRPRPRPMKTPRP | 0.00695
141 | RRIRWRPPRLPRPRPRPRWVPRP | 0.454
142 | RRIRSRPPRLPRPRPRPKPQPRP | 0.524
143 | RRIRFRPPRLPRPRPRPPQAPRP | 0.558
144 | RRIRYRPPRLPRPRPRPFYCPRP | -1.27
145 | RRIRNRPPRLPRPRPRPGQTPRP | 0.00913
146 | RRIRVRPPRLPRPRPRPYPDPRP | -0.293
147 | RRIRCRPPRLPRPRPRPVGTPRP | -0.149
148 | RRIRTRPPRLPRPRPRPYCWPRP | -0.109
149 | RRIRHRPPRLPRPRPRPWMFPRP | -0.119
150 | RRIRFRPPRLPRPRPRPIQAPRP | 0.00328
